In patent publication US20210107972A1 (NEURIMMUNE, published 2021):
No end group written: not given here.

T1: pepscan peptide 6: 16-LVHSSNNFGA-25 (human)
T1 construct: Spotted on a nitrocellulose membrane
T1 peptide: LVHSSNNFGA

T2: pepscan peptide 7: 19-SSNNFGAILS-28 (human)
T2 construct: Spotted on a nitrocellulose membrane
T2 peptide: SSNNFGAILS

T3: human islet amyloid polypeptide (human IAPP), IAPP solution containing IAPP fibrils (human, not fully specified; disulfide bridge between cysteine residues 2 and 7 and an amidated C-terminus (as the filing describes human IAPP))
T3 construct: The human IAPP solution used for ELISA coating contained IAPP fibrils (electron microscopy); also called hIAPP; amylin
T3 peptide: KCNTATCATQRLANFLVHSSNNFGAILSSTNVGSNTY

T4: pepscan peptide 1: 1-KCNTATCATQ-10 (human, ends and bridges not checked; cysteine pairing not given here)
T4 construct: Spotted on a nitrocellulose membrane
T4 peptide: KCNTATCATQ

T5: pepscan peptide 2: 4-TATCATQRLA-13 (human)
T5 construct: Spotted on a nitrocellulose membrane
T5 peptide: TATCATQRLA

B1: NI-203.19H8 (antibody, V domains shown)
VH: EVQLVESGGGVVQPGTSLRLSCAASGFTFSSYGMHWVRQAPGKGLEWVAIIWYDGSKEYYADSLKGRVTISRDNSENTLYLQLHTLRVEDTAVYFCARTIASATVDHGMDVWGQGTLVTVSS
VL: DVVMTQSPSSVSASVGDRVTITCRASHDISTWLAWYQQRPGKAPNLLIFGASRLQSGVSPRFSGSGSGTDFTLTISSLQPEDFATYYCQQTNNFPPTFGQGTRLEIK
notes: Recombinant human antibody, kappa light chain, detected with anti-human IgG gamma secondary
B2: NI-203.26C11 (antibody, V domains shown)
VH: QVQLQESGPGLVKPSQTLSLTCTVSGGSISSGNYYWTWIRQPAGKGLEWIGHIYSSGTTNYNPSLESRVTISVDTSKNQFSLSLNSVTAADTAVYYCARPLATVPDAFNIWGQGTMVTVSS
VL: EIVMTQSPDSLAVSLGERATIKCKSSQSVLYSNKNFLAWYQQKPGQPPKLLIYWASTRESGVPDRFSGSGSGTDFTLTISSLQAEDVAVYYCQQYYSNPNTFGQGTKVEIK
notes: as for B1
B3: mouse chimeric NI-203.19H8 (antibody, V domains shown)
VH: B1 VH
VL: B1 VL
notes: Mouse chimeric version of the human antibody (said to comprise the CDR domains of the human antibody)
B4: NI-203.9A2 (antibody, V domains shown)
VH: EVQLVESGGGLVQPGGSLRLSCAASGFTFSTFAMSWVRQAPGKGLEWVSTISGSGDNTYYADSLKGRFTISRDNSKNTLYLQVNSLRPEDTAVYYCAKSPSSLLATYFDYWGQGTLVTVSS
VL: EIVLTQSPSTLSASVGDRVTITCRASESINSWLAWYQQKPGKGPKLLIYKASSLQSGVPSRFSGSGSGTEFTLTISSLQPDDFATYYCQQHNSYWTFGQGTKVEIK
notes: as for B1
B5: NI-203.8E3 (antibody, V domains shown)
VH: QVQLVQSGAEVKKPGSSVKVSCKASGGTFSSHTISWVRQAPGQGLEWMGGIIPIFGTANYAQKFQDRVTVTADKSTNTAYMELSSLRPEDTAVYYCAKGELEPRILYYYGMDVWGRGTTVTVSS
VL: DVVMTQSPLSLPVTLGQPASISCRSSQSLVYSDGNTYLNWFHQRPGQSPRRLIYKVSNRDSGVPDRFSGSGSGTDFTLKISRVEAEDVGVYYCMQGSNWPGTFGQGTKVEIK
notes: as for B1
B6: mouse chimeric NI-203.9A2 (antibody, V domains shown)
VH: B4 VH
VL: B4 VL
notes: as for B3
B7: mouse chimeric NI-203.26C11 (antibody, V domains shown)
VH: B2 VH
VL: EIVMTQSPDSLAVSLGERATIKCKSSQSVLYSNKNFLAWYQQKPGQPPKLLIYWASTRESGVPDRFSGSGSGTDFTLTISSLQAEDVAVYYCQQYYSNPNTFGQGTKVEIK
notes: as for B3

Experiments:
[1] = molecular target: T6, pathological Aβ amyloid (Alzheimer's disease human brain) (human, UniProt P05067 672-713); test: immunohistochemistry, paraffin-embedded Alzheimer's disease brain sections
T6 construct: also called Aβ deposits

[2] = molecular target: T1, pepscan peptide 6: 16-LVHSSNNFGA-25; test: pepscan on nitrocellulose membrane, antibody 1 µg/ml
[3] = molecular target: T2, pepscan peptide 7: 19-SSNNFGAILS-28; test: as above
[4] = molecular target: bovine serum albumin (BSA) (bovine, UniProt P02769 25-607); test: direct ELISA, BSA coated at 10 µg/ml
[5] = molecular target: T3, human islet amyloid polypeptide (human …); test: direct ELISA, human IAPP solution (fibrils) coated at 10 µg/ml, comparison with chimeric
[6] = molecular target: T3, human islet amyloid polypeptide (human …); test: direct ELISA, human IAPP solution (fibrils) coated at 10 µg/ml
[7] = molecular target: T4, pepscan peptide 1: 1-KCNTATCATQ-10; test: pepscan on nitrocellulose membrane, antibody 1 µg/ml
[8] = molecular target: T5, pepscan peptide 2: 4-TATCATQRLA-13; test: pepscan on nitrocellulose membrane

Sequence of bovine serum albumin (BSA) (P02769 25-607 limits assumed): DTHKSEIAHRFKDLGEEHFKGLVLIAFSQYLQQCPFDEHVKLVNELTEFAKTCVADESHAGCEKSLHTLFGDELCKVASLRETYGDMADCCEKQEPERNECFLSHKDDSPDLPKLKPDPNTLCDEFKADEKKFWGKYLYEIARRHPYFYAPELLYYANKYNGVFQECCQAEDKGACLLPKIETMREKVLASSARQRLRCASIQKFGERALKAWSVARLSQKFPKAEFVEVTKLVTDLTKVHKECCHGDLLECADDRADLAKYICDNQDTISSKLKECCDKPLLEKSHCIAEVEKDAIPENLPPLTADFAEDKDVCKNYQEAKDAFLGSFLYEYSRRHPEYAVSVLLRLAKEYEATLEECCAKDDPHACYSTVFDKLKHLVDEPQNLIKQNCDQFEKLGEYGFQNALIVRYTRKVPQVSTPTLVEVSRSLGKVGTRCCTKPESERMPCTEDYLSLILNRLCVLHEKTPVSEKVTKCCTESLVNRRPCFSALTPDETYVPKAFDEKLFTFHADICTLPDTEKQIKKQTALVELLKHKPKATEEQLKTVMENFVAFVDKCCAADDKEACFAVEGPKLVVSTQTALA

Binder	binding result [1]	binding result [4]	further results
B1	no binding (tested: 50 nM)	no binding	binding result [2]: binds; binding result [3]: binds; EC50 [5]: 22.9 nM; EC50 [6]: 22 nM
B2	no binding (tested: 50 nM)	no binding	binding result [7]: binds; binding result [8]: no binding (tested: 1 µg/ml)
B3	–	no binding	EC50 [6]: 23.9 nM
B4	no binding (tested: 50 nM)	no binding	–
B5	–	no binding	–
B6	–	no binding	–
B7	–	no binding	–
